{"source": "paper PMC2858980", "key": {"IL-8(1–66) monomer": {"target": "IL-8(1–66) monomer", "assay": "NMR titration"}, "[1]": {"target": "IL-8(1–72) R26C trapped dimer", "assay": "NMR titration"}}, "data": [{"binder": "LWTWFEDEFANATGMPPVEKDYSP", "note": "[CXCR1 N-domain 24-mer]", "values": [{"measurement": "Kd", "setting": "IL-8(1–66) monomer", "result": 10, "unit": "µM"}, {"measurement": "Kd", "setting": "[1]", "result": 340, "unit": "µM"}]}]}
